Laboratory results: patent US20220288203A1
One block for each binder: values may come before it.

Assays:
[1] = target: Human podocalyxin as endogenously expressed and displayed by tumor cell lines (A172, SKOV3, MIA PaCa-2, MDA-MB-231) (human) (UniProt O00592); assay: flow cytometry titration on A172 cells, four-parameter fit (Prism)
[2] = target: Human podocalyxin as endogenously expressed and displayed by tumor cell lines (A172, SKOV3, MIA PaCa-2, MDA-MB-231) (human) (UniProt O00592); assay: KinExA 3200; titrated A172 cells with constant antibody, 16 h equilibrium
[3] = target: Human podocalyxin as endogenously expressed and displayed by tumor cell lines (A172, SKOV3, MIA PaCa-2, MDA-MB-231) (human) (UniProt O00592); assay: KinExA 3200; titrated A172 cells with constant antibody, 16 h equilibrium, free antibody measured

Sequence of Human podocalyxin as endogenously expressed and displayed by tumor cell lines (A172, SKOV3, MIA PaCa-2, MDA-MB-231) (human) (O00592 23-558): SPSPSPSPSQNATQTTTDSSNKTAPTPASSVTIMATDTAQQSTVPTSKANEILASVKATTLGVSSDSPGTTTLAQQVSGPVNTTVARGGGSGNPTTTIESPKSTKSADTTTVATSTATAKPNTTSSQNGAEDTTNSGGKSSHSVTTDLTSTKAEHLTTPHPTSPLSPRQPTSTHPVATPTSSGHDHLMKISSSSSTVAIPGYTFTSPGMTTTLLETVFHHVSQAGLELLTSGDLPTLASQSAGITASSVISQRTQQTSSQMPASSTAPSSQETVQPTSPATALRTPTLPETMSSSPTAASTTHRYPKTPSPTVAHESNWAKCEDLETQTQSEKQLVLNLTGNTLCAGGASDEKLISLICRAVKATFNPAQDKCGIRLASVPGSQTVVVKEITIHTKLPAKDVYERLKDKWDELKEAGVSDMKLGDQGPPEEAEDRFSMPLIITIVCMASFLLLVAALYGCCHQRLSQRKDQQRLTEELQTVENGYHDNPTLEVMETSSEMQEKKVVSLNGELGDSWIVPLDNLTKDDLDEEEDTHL

Bottom (best-fit) [1]: 1940
LogIC50 [1]: 2.09
Span (best-fit) [1]: 236000
Top (best-fit) [1]: 238000
Epitopes/Cell (epitopes/cell) [2]: 233000
Kd High [2]: 45.9 pM
Kd Low [2]: 4.59 pM
Kd [3]: 14.4 pM
B1: Humanized Podo447 (humanized_podo447VH_hIgG1C + humanized_podo447VL6_hIgkC) (antibody, V domains shown)
VH: EVQLVESGGGLVQPGRSLRLSCTASGFSLSGYQMNWVRQAPGKGLEWVGYIWSDGGTDYTASVKGRFTISRDGSKSIAYLQMNSLKTEDTAVYYCAREGYWLGAFDPWGQGTSVTVSA
VL: AAQLTQSPSPLSASVGDRVTITCQSSQSVHHKNDLAWYQQKPGKAPKLLIYYTSTLASGVPSRFSGSGSGTDFTLTISSLQPEDFATYYCAGVYEGSSDNRAFGGGTKVEIKR

Bottom (best-fit) [1]: 8630
LogIC50 [1]: 2.28
Span (best-fit) [1]: 371000
Top (best-fit) [1]: 380000
Epitopes/Cell (epitopes/cell) [2]: 420000
Kd High [2]: 24.9 pM
Kd Low [2]: 2.3 pM
Kd [3]: 7.57 pM
B2: Podo447, recombinant rabbit/human chimeric anti-podocalyxin antibody (rabbit V genes, human IgG1 and kappa constant regions) (antibody, V domains shown)
VH: QSLEESGGRLVTPGTPLTLTCTASGFSLSGYQMNWVRQAPGKGLEWIGYIWSDGGTDYASWAKGRFTISKTSSTTVDLKMTSLTTEDTATYFCAREGYWLGAFDPWGPGTLVTVSS
VL: AAVLTQTPSPVSAAVGATVSVSCQSSQSVHHKNDLAWFQQKPGQPPKLLIYYTSTLASGVPSRFKGSGSGTQFTLTISDLECDDAATYYCAGVYEGSSDNRAFGGGTEVVVKR
